Experimental data published in patent CN111592595A (UNIV NANJING MEDICAL, dated 2020).

Assays:
SARS-Cov-1-RBD-hFc蛋白 = biological target: T1, SARS-Cov-1-RBD-hFc蛋白 (SARS-Cov-1, UniProt P59594 306-527); test: phage ELISA on coated antigen, anti-M13-HRP detection
T1 construct: domain: RBD

[1] = biological target: SARS-Cov-2 spike (on lentiviral pseudovirus) (SARS-Cov-2, UniProt P0DTC2 14-1273); test: cell-based or functional assay
SARS-Cov-2-RBD-his蛋白 = SARS-Cov-2-RBD-his蛋白 (SARS-Cov-2, UniProt P0DTC2 319-541)

B1: 4A3噬菌体 (4A3 scFv displayed on phage) (scFv)
scFv: EVQLLESGGGLVQPGGSLRLSCAASGFTFSSYAMSWVRQAPGKGLEWVSSIASSGYYTDYADSVKGRFTISRDNSKNTLYLQMNSLRAEDTAVYYCAKDADSFDYWGQGTLVTVSSGGGGSGGGGSGGGGSDIQMTQSPSSLSASVGDRVTITCRASQSISSYLNWYQQKPGKAPKLLIYAASYLQSGVPSRFSGSGSGTDFTLTISSLQPEDFATYYCQQAYSAPSTFGQGTKVEIK
notes: also called 4A3抗体; 4A3的噬菌体
Does B1 bind (SARS-Cov-1-RBD-hFc蛋白)?
Result: no binding (tested: 5μg/ml coating)

B2: 4A3 IgG重组蛋白 (human IgG1) (antibody, V domains shown)
VH: EVQLLESGGGLVQPGGSLRLSCAASGFTFSSYAMSWVRQAPGKGLEWVSSIASSGYYTDYADSVKGRFTISRDNSKNTLYLQMNSLRAEDTAVYYCAKDADSFDYWGQGTLVTVSS
VL: DIQMTQSPSSLSASVGDRVTITCRASQSISSYLNWYQQKPGKAPKLLIYAASYLQSGVPSRFSGSGSGTDFTLTISSLQPEDFATYYCQQAYSAPSTFGQGTKVEIK
With B2 as the binder, how does the “IC50 of inhibition of pseudovirus infection of ACE2-CHO cells (Luciferase活性)” value [1] read?
Its value is 0.28 µg/mL.

And the Kd (SARS-Cov-2-RBD-his蛋白)?
The Kd was 3.62 nM.
